In article PMC4769699 (Environmental microbiology reports, 2015):

Target: the molecule itself
Experiment: native MS

B1: AmrZ1-66 (AmrZ without the C-terminal domain) (domain or fragment)
chain: MRPLKQATPTYSSRTADKFVVRLPEGMREQIAEVARSHHRSMNSEIIARLEQSLLQEGALQDNLGV
  stoichiometry N: 2
